Marks after values point to notes of the source that are not given here.

Data set [1] in a line: Single fiber tensile strength and bleaching start after two-step enzymatic application. Here is the method:
(§1) Hair samples were cut into pieces 4-inches in length. The denier number (liner mass density) of each hair fiber was measured by Textechno Vibromat Instrument (Textechno Herbert Stein GmbH & Co. KG; Germany). The hair fibers were tested according to ASTM D 3822-01 (“Tensile Properties of Single Textile Fibers”; ASTM International, West Conshohocken, Pa., 2001), on an Instron testing system (Instron Model 1122 Tester; Instron, Mass.) at about 70° F. (approximately 21° C.) and 65% relative humidity. The treated area of the hair sample was placed in the middle of the gauge and both ends were gripped on the test heads. Both fiber ends were attached on a piece of tape, respectively, for easy handling and gripping on the test heads. The test used 2-inch (5.1 cm) gauge length, […], and 1.2 inch/min (3 cm/min) pulling rate. The force-strain curve of the fiber was recorded during the test. The tenacity at maximum (gf/den) was calculated by dividing maximum force (gf) by denier number (den). Note that (gf/den)/11.33=Newtons/tex (N/tex).
In a two-step application, the hair strands are first treated with perhydrolase solutions to allow the enzyme to bind hair. The hair strands are then dried or rinsed with buffer and dried. The rinse step is intended to remove excess unbound enzyme from the hair. The hair strands are soaked in triacetin and H2O2 solutions. The application is repeated for multiple times.
One experiment was carried out with C277S-HC263 and untargeted T. maritima variant C277S using the following protocol: • 1. Enzyme solutions comprising 0.5 mg/mL enzyme in 50 mM phosphate buffer (pH 8) were made with or without 10 wt % urea. • 2. Seven (7) hair strands were soaked in 0.2 mL of an enzyme solution for 10 min and then dried under N2 without prior rinsing. • 3. The hair strands were then soaked in 0.2 mL of a pH 8 solution containing 100-mM triacetin and 250-mM H2O2 for 15 min, dried, then rinsed with DI water and then dried again. • 4. Steps 2-3 were repeated up to 15 times.
Another experiment was carried out with C277S-HC263 (SEQ ID NO: 288), CPAH-HC263 (SEQ ID NO: 294), CPAH-HC1010 (SEQ ID NO: 295) and untargeted C277S using the following protocol: • 1. Enzyme solutions comprising 1.0 mg/mL enzyme in 50 mM phosphate buffer (pH 6) were prepared. For solutions containing two enzymes, the concentration of each enzyme was approximately 0.5 mg/mL. • 2. Seven (7) hair strands were soaked in 0.2 mL of an enzyme solution for 10 min, rinsed with 50 mM phosphate buffer (pH 6), and then dried under N2. • 3. The dried hair strands were then soaked into 0.2 mL of 50 mM phosphate buffer solution (pH 8) comprising 100 mM triacetin and 250 mM H2O2 for 15 min, dried, then rinsed with DI water and then dried again. • 4.

The nature of data set [2]: Single fiber tensile strength after one-step enzymatic application. As for the experimental part:
as §1
The first method (referred to herein as the “one-step approach”) comprises combining different amounts of at least one CE-7 perhydrolase with triacetin (an example of a suitable ester substrate) and hydrogen peroxide to generate peracetic acid. Hair bundles were inserted into “one step approach” solutions for 15 min immediately after mixing the enzyme solution with triacetin solution (final concentration was about 100 mM) and H2O2 solution (final concentration was about 250 mM). The hair samples were rinsed with water and dried. The method was repeated for another 15 times (total application was 16 times). In one experiment, two perhydrolase enzymes were used, i.e., untargeted T. maritima variant C277S (“C277S”; “PAH”; SEQ ID NO: 293) and “C277S-HC263” (SEQ ID NO: 288). The concentration of peracetic acid in solution after 15 min was evaluated by HPLC.

A short description of data set [3]: Compatibility of perhydrolase with commercial moisturizer lotion, PAA indicator strip. The data set is classed as physicochemical. As to conditions: ~0.1 mg/mL in lotion, room temperature (~21° C.). Here is the method: Lotion “A” was prepared by mixing 0.7667 g of SUAVE® Advanced Therapy Moisturizer (Lot#12148JU41, Unilever, CT) with 40 μL of perhydrolase fusion C277S-HC263 (10 mg/mL) in a 2-mL microfuge using an overhead mixer at 200 rpm for about 3 min. The concentration of C277S-HC263 (SEQ ID NO: 288) was about 0.1 mg/mL in lotion A.
Two control samples, i.e., A-control1 and A-control2, were prepared by replacing perhydrolase (C277S-HC263; SEQ ID NO: 288) with same volume of DI water and 50 mM phosphate buffer (pH 8), respectively.
Solution “B” was made by combining 44 μl of triacetin, 899 μL of 50 mM, pH 8, phosphate buffer, and 57 μL of H2O2 (30 wt %). Solution B was freshly made every time just before running the PAA indicator strip test.
After a predetermined time, 50 μl of lotion “A” and 50 μl of solution “B” were mixed gently for about 1 min. PAA indicator strips were used to test for the presence of PAA in the mixture as described in Example 10.

Setting [4] is: two-step with buffer rinse, 1.0 mg/mL enzyme pH 6, 100 mM triacetin, 250 mM H2O2, up to 13 repeats.
Setting [5] is: two-step without rinse, 0.5 mg/mL enzyme pH 8, urea 0 wt %.
The mark [6] stands for this setting: two-step without rinse, 0.5 mg/mL enzyme pH 8, urea 0 wt %, 100 mM triacetin, 250 mM H2O2.
[7] abbreviates: two-step without rinse, 0.5 mg/mL enzyme pH 8, urea 10 wt %, 100 mM triacetin, 250 mM H2O2.

B1: C277S: non-targeted C277S variant of the Thermotoga maritima perhydrolase, un-targeted control (protein, listed as Thermotoga maritima)
chain: MAFFDLPLEELKKYRPERYEEKDFDEFWEETLAESEKFPLDPVFERMESHLKTVEAYDVTFSGYRGQRIKGWLLVPKLEEEKLPCVVQYIGYNGGRGFPHDWLFWPSMGYICFVMDTRGQGSGWLKGDTPDYPEGPVDPQYPGFMTRGILDPRTYYYRRVFTDAVRAVEAAASFPQVDQERIVIAGGSQGGGIALAVSALSKKAKALLCDVPFLCHFRRAVQLVDTHPYAEITNFLKTHRDKEEIVFRTLSYFDGVNFAARAKIPALFSVGLMDNISPPSTVFAAYNYYAGPKEIRIYPYNNHEGGGSFQAVEQVKFLKKLFEKG
With B1, the “Tenacity @ max” value in data set [1] (setting [4]) is 1.7 gf/den; in data set [1] (setting [6]), 0.7 gf/den; in data set [1] (setting [7]), 0.6 gf/den. The “Bleaching Start” value in data set [1] (setting [5]) is on record as 13th; in data set [1] (two-step without rinse, 0.5 mg/mL enzyme pH 8, urea 10 wt %), 12th. Besides, the “Ten. @ Max” value was 0.3 gf/den in data set [2] (0.05 mg/mL enzyme, urea 10 wt %, 15 min × 16); 0.6^# gf/den in data set [2] (0.25 mg/mL enzyme, urea 10 wt %, 15 min × 16, average of less than 3 strands); 0.6 gf/den in data set [2] (0.5 mg/mL enzyme, urea 10 wt %, 15 min × 16).

B2: C277S-HC263: C277S variant of Thermotoga maritima perhydrolase fused via a flexible linker to hair-binding domain HC263 (protein)
chain: MAFFDLPLEELKKYRPERYEEKDFDEFWEETLAESEKFPLDPVFERMESHLKTVEAYDVTFSGYRGQRIKGWLLVPKLEEEKLPCVVQYIGYNGGRGFPHDWLFWPSMGYICFVMDTRGQGSGWLKGDTPDYPEGPVDPQYPGFMTRGILDPRTYYYRRVFTDAVRAVEAAASFPQVDQERIVIAGGSQGGGIALAVSALSKKAKALLCDVPFLCHFRRAVQLVDTHPYAEITNFLKTHRDKEEIVFRTLSYFDGVNFAARAKIPALFSVGLMDNISPPSTVFAAYNYYAGPKEIRIYPYNNHEGGGSFQAVEQVKFLKKLFEKGGPGSGGAGSPGSAGGPGSPSAQSQLPDKHSGLHERAPQRYGPEPEPEPEPIPEPPKEAPVVIEKPKPKPKPKPKPPAHDHKNQKETHQRHAAGSGGGGSPHHHHHH
As to B2, the “Tenacity @ max” value in data set [1] (setting [4]) amounted to 1.7 gf/den; in data set [1] (setting [6]) it was 1.2 gf/den; in data set [1] (setting [7]), 1.7 gf/den. Besides, the “Bleaching Start” value in data set [1] (setting [5]) came out at 15th. In data set [3], the “time perhydrolase activity retained in SUAVE® moisturizer” value is “at least 30 days”. The “Ten. @ Max” value in data set [2] (0.05 mg/mL enzyme, urea 0 wt %, 15 min × 16) is listed as 1.0 gf/den; in data set [2] (0.25 mg/mL enzyme, urea 0 wt %, 15 min × 16, average of less than 3 strands), 0.4^# gf/den; in data set [2] (0.5 mg/mL enzyme, urea 0 wt %, 15 min × 16), 0.7 gf/den.

These data come from patent US20130171217A1, “ENZYMATIC PERACID GENERATION FOR USE IN SKIN CARE PRODUCTS” (E I DU PONT DE NEMOURS AND COMPANY, priority 2010, published 2013).
